The labels stand for the following.
T1: human neuropeptide Y2 receptor (human, UniProt P49146 1-381)
T1 construct: whole, on cells; also called hNPY2 receptor; hNPY2-R
T1 sequence (looked up): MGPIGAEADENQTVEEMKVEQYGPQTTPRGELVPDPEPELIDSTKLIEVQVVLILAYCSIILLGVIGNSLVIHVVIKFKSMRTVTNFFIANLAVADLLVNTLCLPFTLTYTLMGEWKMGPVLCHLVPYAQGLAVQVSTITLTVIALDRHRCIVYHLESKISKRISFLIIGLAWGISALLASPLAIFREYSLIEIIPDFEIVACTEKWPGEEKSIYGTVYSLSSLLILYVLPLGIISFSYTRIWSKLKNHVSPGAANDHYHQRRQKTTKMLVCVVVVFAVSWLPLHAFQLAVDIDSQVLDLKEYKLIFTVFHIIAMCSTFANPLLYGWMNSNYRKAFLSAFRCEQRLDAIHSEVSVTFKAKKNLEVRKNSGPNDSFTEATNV

B1: Compound 37 (peptide)
peptide: Isovaleryl-APEK([AEEA-AEEA-γGlu-C18 diacid])PEEDASPEETQRYEVSLRHYYNWLTRQRY-NH2
SMILES: CC(C)CC(=O)N[C@@H](C)C(=O)N1CCC[C@H]1C(=O)N[C@@H](CCC(=O)O)C(=O)N[C@@H](CCCCNC(=O)COCCOCCNC(=O)COCCOCCNC(=O)CC[C@H](NC(=O)CCCCCCCCCCCCCCCCC(=O)O)C(=O)O)C(=O)N1CCC[C@H]1C(=O)N[C@@H](CCC(=O)O)C(=O)N[C@@H](CCC(=O)O)C(=O)N[C@@H](CC(=O)O)C(=O)N[C@@H](C)C(=O)N[C@@H](CO)C(=O)N1CCC[C@H]1C(=O)N[C@@H](CCC(=O)O)C(=O)N[C@@H](CCC(=O)O)C(=O)N[C@H](C(=O)N[C@@H](CCC(N)=O)C(=O)N[C@@H](CCCNC(=N)N)C(=O)N[C@@H](Cc1ccc(O)cc1)C(=O)N[C@@H](CCC(=O)O)C(=O)N[C@H](C(=O)N[C@@H](CO)C(=O)N[C@@H](CC(C)C)C(=O)N[C@@H](CCCNC(=N)N)C(=O)N[C@@H](Cc1c[nH]cn1)C(=O)N[C@@H](Cc1ccc(O)cc1)C(=O)N[C@@H](Cc1ccc(O)cc1)C(=O)N[C@@H](CC(N)=O)C(=O)N[C@@H](Cc1c[nH]c2ccccc12)C(=O)N[C@@H](CC(C)C)C(=O)N[C@H](C(=O)N[C@@H](CCCNC(=N)N)C(=O)N[C@@H](CCC(N)=O)C(=O)N[C@@H](CCCNC(=N)N)C(=O)N[C@@H](Cc1ccc(O)cc1)C(N)=O)[C@@H](C)O)C(C)C)[C@@H](C)O
B2: Compound 42 (peptide)
peptide: Isovaleryl-APEK([AEEA-AEEA-γGlu-C18 diacid])PEEAASPEELQRYYVSTRHYYNWLTRQRY-NH2
SMILES: CC(C)CC(=O)N[C@@H](C)C(=O)N1CCC[C@H]1C(=O)N[C@@H](CCC(=O)O)C(=O)N[C@@H](CCCCNC(=O)COCCOCCNC(=O)COCCOCCNC(=O)CC[C@H](NC(=O)CCCCCCCCCCCCCCCCC(=O)O)C(=O)O)C(=O)N1CCC[C@H]1C(=O)N[C@@H](CCC(=O)O)C(=O)N[C@@H](CCC(=O)O)C(=O)N[C@@H](C)C(=O)N[C@@H](C)C(=O)N[C@@H](CO)C(=O)N1CCC[C@H]1C(=O)N[C@@H](CCC(=O)O)C(=O)N[C@@H](CCC(=O)O)C(=O)N[C@@H](CC(C)C)C(=O)N[C@@H](CCC(N)=O)C(=O)N[C@@H](CCCNC(=N)N)C(=O)N[C@@H](Cc1ccc(O)cc1)C(=O)N[C@@H](Cc1ccc(O)cc1)C(=O)N[C@H](C(=O)N[C@@H](CO)C(=O)N[C@H](C(=O)N[C@@H](CCCNC(=N)N)C(=O)N[C@@H](Cc1c[nH]cn1)C(=O)N[C@@H](Cc1ccc(O)cc1)C(=O)N[C@@H](Cc1ccc(O)cc1)C(=O)N[C@@H](CC(N)=O)C(=O)N[C@@H](Cc1c[nH]c2ccccc12)C(=O)N[C@@H](CC(C)C)C(=O)N[C@H](C(=O)N[C@@H](CCCNC(=N)N)C(=O)N[C@@H](CCC(N)=O)C(=O)N[C@@H](CCCNC(=N)N)C(=O)N[C@@H](Cc1ccc(O)cc1)C(N)=O)[C@@H](C)O)[C@@H](C)O)C(C)C
B3: Compound 40 (peptide)
peptide: Isovaleryl-APEK([AEEA-AEEA-γGlu-C18 diacid])PEEDATPEETQRYYVSLRHYYNWLTRQRY-NH2
SMILES: CC(C)CC(=O)N[C@@H](C)C(=O)N1CCC[C@H]1C(=O)N[C@@H](CCC(=O)O)C(=O)N[C@@H](CCCCNC(=O)COCCOCCNC(=O)COCCOCCNC(=O)CC[C@H](NC(=O)CCCCCCCCCCCCCCCCC(=O)O)C(=O)O)C(=O)N1CCC[C@H]1C(=O)N[C@@H](CCC(=O)O)C(=O)N[C@@H](CCC(=O)O)C(=O)N[C@@H](CC(=O)O)C(=O)N[C@@H](C)C(=O)N[C@H](C(=O)N1CCC[C@H]1C(=O)N[C@@H](CCC(=O)O)C(=O)N[C@@H](CCC(=O)O)C(=O)N[C@H](C(=O)N[C@@H](CCC(N)=O)C(=O)N[C@@H](CCCNC(=N)N)C(=O)N[C@@H](Cc1ccc(O)cc1)C(=O)N[C@@H](Cc1ccc(O)cc1)C(=O)N[C@H](C(=O)N[C@@H](CO)C(=O)N[C@@H](CC(C)C)C(=O)N[C@@H](CCCNC(=N)N)C(=O)N[C@@H](Cc1c[nH]cn1)C(=O)N[C@@H](Cc1ccc(O)cc1)C(=O)N[C@@H](Cc1ccc(O)cc1)C(=O)N[C@@H](CC(N)=O)C(=O)N[C@@H](Cc1c[nH]c2ccccc12)C(=O)N[C@@H](CC(C)C)C(=O)N[C@H](C(=O)N[C@@H](CCCNC(=N)N)C(=O)N[C@@H](CCC(N)=O)C(=O)N[C@@H](CCCNC(=N)N)C(=O)N[C@@H](Cc1ccc(O)cc1)C(N)=O)[C@@H](C)O)C(C)C)[C@@H](C)O)[C@@H](C)O
B4: Compound 45 (peptide)
peptide: Isovaleryl-APEK([AEEA-AEEA-γGlu-C18 diacid])PEEEASPESLQRYYVSLRHYYNWLTRQRY-NH2
SMILES: CC(C)CC(=O)N[C@@H](C)C(=O)N1CCC[C@H]1C(=O)N[C@@H](CCC(=O)O)C(=O)N[C@@H](CCCCNC(=O)COCCOCCNC(=O)COCCOCCNC(=O)CC[C@H](NC(=O)CCCCCCCCCCCCCCCCC(=O)O)C(=O)O)C(=O)N1CCC[C@H]1C(=O)N[C@@H](CCC(=O)O)C(=O)N[C@@H](CCC(=O)O)C(=O)N[C@@H](CCC(=O)O)C(=O)N[C@@H](C)C(=O)N[C@@H](CO)C(=O)N1CCC[C@H]1C(=O)N[C@@H](CCC(=O)O)C(=O)N[C@@H](CO)C(=O)N[C@@H](CC(C)C)C(=O)N[C@@H](CCC(N)=O)C(=O)N[C@@H](CCCNC(=N)N)C(=O)N[C@@H](Cc1ccc(O)cc1)C(=O)N[C@@H](Cc1ccc(O)cc1)C(=O)N[C@H](C(=O)N[C@@H](CO)C(=O)N[C@@H](CC(C)C)C(=O)N[C@@H](CCCNC(=N)N)C(=O)N[C@@H](Cc1c[nH]cn1)C(=O)N[C@@H](Cc1ccc(O)cc1)C(=O)N[C@@H](Cc1ccc(O)cc1)C(=O)N[C@@H](CC(N)=O)C(=O)N[C@@H](Cc1c[nH]c2ccccc12)C(=O)N[C@@H](CC(C)C)C(=O)N[C@H](C(=O)N[C@@H](CCCNC(=N)N)C(=O)N[C@@H](CCC(N)=O)C(=O)N[C@@H](CCCNC(=N)N)C(=O)N[C@@H](Cc1ccc(O)cc1)C(N)=O)[C@@H](C)O)C(C)C
B5: Compound 44 (peptide)
peptide: Isovaleryl-APEK([AEEA-AEEA-γGlu-C18 diacid])PEEEASPEELQRYYVSLRHYYNWITRQRY-NH2
SMILES: CC[C@H](C)[C@H](NC(=O)[C@H](Cc1c[nH]c2ccccc12)NC(=O)[C@H](CC(N)=O)NC(=O)[C@H](Cc1ccc(O)cc1)NC(=O)[C@H](Cc1ccc(O)cc1)NC(=O)[C@H](Cc1c[nH]cn1)NC(=O)[C@H](CCCNC(=N)N)NC(=O)[C@H](CC(C)C)NC(=O)[C@H](CO)NC(=O)[C@@H](NC(=O)[C@H](Cc1ccc(O)cc1)NC(=O)[C@H](Cc1ccc(O)cc1)NC(=O)[C@H](CCCNC(=N)N)NC(=O)[C@H](CCC(N)=O)NC(=O)[C@H](CC(C)C)NC(=O)[C@H](CCC(=O)O)NC(=O)[C@H](CCC(=O)O)NC(=O)[C@@H]1CCCN1C(=O)[C@H](CO)NC(=O)[C@H](C)NC(=O)[C@H](CCC(=O)O)NC(=O)[C@H](CCC(=O)O)NC(=O)[C@H](CCC(=O)O)NC(=O)[C@@H]1CCCN1C(=O)[C@H](CCCCNC(=O)COCCOCCNC(=O)COCCOCCNC(=O)CC[C@H](NC(=O)CCCCCCCCCCCCCCCCC(=O)O)C(=O)O)NC(=O)[C@H](CCC(=O)O)NC(=O)[C@@H]1CCCN1C(=O)[C@H](C)NC(=O)CC(C)C)C(C)C)C(=O)N[C@H](C(=O)N[C@@H](CCCNC(=N)N)C(=O)N[C@@H](CCC(N)=O)C(=O)N[C@@H](CCCNC(=N)N)C(=O)N[C@@H](Cc1ccc(O)cc1)C(N)=O)[C@@H](C)O
B6: Compound 43 (peptide)
peptide: Isovaleryl-APEK([AEEA-AEEA-γGlu-C18 diacid])PEAPASPEELQRYYVSLRHYYNWLTRQRY-NH2
SMILES: CC(C)CC(=O)N[C@@H](C)C(=O)N1CCC[C@H]1C(=O)N[C@@H](CCC(=O)O)C(=O)N[C@@H](CCCCNC(=O)COCCOCCNC(=O)COCCOCCNC(=O)CC[C@H](NC(=O)CCCCCCCCCCCCCCCCC(=O)O)C(=O)O)C(=O)N1CCC[C@H]1C(=O)N[C@@H](CCC(=O)O)C(=O)N[C@@H](C)C(=O)N1CCC[C@H]1C(=O)N[C@@H](C)C(=O)N[C@@H](CO)C(=O)N1CCC[C@H]1C(=O)N[C@@H](CCC(=O)O)C(=O)N[C@@H](CCC(=O)O)C(=O)N[C@@H](CC(C)C)C(=O)N[C@@H](CCC(N)=O)C(=O)N[C@@H](CCCNC(=N)N)C(=O)N[C@@H](Cc1ccc(O)cc1)C(=O)N[C@@H](Cc1ccc(O)cc1)C(=O)N[C@H](C(=O)N[C@@H](CO)C(=O)N[C@@H](CC(C)C)C(=O)N[C@@H](CCCNC(=N)N)C(=O)N[C@@H](Cc1c[nH]cn1)C(=O)N[C@@H](Cc1ccc(O)cc1)C(=O)N[C@@H](Cc1ccc(O)cc1)C(=O)N[C@@H](CC(N)=O)C(=O)N[C@@H](Cc1c[nH]c2ccccc12)C(=O)N[C@@H](CC(C)C)C(=O)N[C@H](C(=O)N[C@@H](CCCNC(=N)N)C(=O)N[C@@H](CCC(N)=O)C(=O)N[C@@H](CCCNC(=N)N)C(=O)N[C@@H](Cc1ccc(O)cc1)C(N)=O)[C@@H](C)O)C(C)C

*1 amine or outer side, *2 acyl side, *3 side chain or, on linkers, in order; H or OH if unused. Side-chain parts run from the residue outwards. The star is where a group is joined. C18 diacid = O=C(O)CCCCCCCCCCCCCCCCC(=O)*; γGlu = O=C(O)[C@H](CCC(=O)[*:2])N[*:1]; Isovaleryl = CC(C)CC(=O)*; AEEA = NCCOCCOCC(=O)O

The target of the assay is T1, human neuropeptide Y2 receptor. The experiment in a line: radioligand competition (125I-PYY(1-36)), hNPY2R membranes. In short, it runs like this:
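Commercial human Y2 receptor membranes (0.5 μg protein/well) were incubated with peptide for 2 h at room temperature in 50 mM HEPES, 5 mM MgCl₂, 1 mM CaCl₂, pH 7.4, with 0.2% ovalbumin. Bound radioligand was separated on PEI-soaked GF/C filters and counted by scintillation, and IC₅₀ came from nonlinear sigmoidal regression.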
For orientation: Displacement assays read how much labelled ligand stays bound in the presence of the test substance.
In general, Ki refers to a dissociation constant, usually derived from enzyme kinetics or from competition with a known ligand. Lower therefore signals a stronger hold on the target. B1 showed an inhibition constant Ki of 4.85 nM.
Next, B2: 5.92 nM.
Under B3 stands 1.21 nM; under B4, 3.97 nM; under B5, 4.44 nM.
B6 came in with a Ki of 0.4 nM.

(Values after patent US20210139548A1 (published 2021).)
